Data published in publication doi:10.1101/2022.06.11.495734 (bioRxiv, 2022).

How the values were obtained:
[1] = biological target: the molecule itself; experiment: non-reducing SDS-PAGE
[2] = biological target: the molecule itself; experiment: native gel or EMSA
[3] = biological target: the molecule itself; experiment: SDS-PAGE after LAFS treatment
[4] = biological target: the molecule itself; experiment: reducing SDS-PAGE and immunoblot of parasite lysate

B1: recombinant Plasmodium falciparum 3D7 60S stalk ribosomal protein P2, 6x His-tag (natural protein, UniProt O00806 1-112, looked up)
chain: MAMKYVAAYLMCVLGGNENPSTKEVKNVLGAVNADVEDEVLNNFIDSLKGKSCHELITDGLKKLQNIGGGVAAAPAGAAAVETAEAKKEDKKEEKKEEEEEEEDDLGFSLFG
For B1, the “stoichiometry N” value [1] was 2 and the “stoichiometry N” value [2] was 4.

B2: rec.PfP2 pre-reduced and alkylated with iodoacetamide (natural protein, Plasmodium falciparum 3D7, UniProt O00806 1-112, looked up)
chain: B1 chain
modifications: all cysteine residues pre-reduced and alkylated with Iodoacetamide (IAA)
B2 was tested, and the “stoichiometry N” value [3] was 4.

B3: Plasmodium falciparum P2 protein, endogenous in wild type 3D7 parasites (natural protein, UniProt O00806 1-112, looked up)
chain: B1 chain
With B3 the “stoichiometry N” value [4] was 4.

B4: PfP2-HA of transgenic P. falciparum 3D7 parasites (natural protein, Plasmodium falciparum 3D7, UniProt O00806 1-112, looked up)
chain: B1 chain
B4 was tested, and the “stoichiometry N” value [4] was 4.
